Source: patent US20190282673A1, “STAPHTAME ACTIVITY ON BIOFILMS” (priority 2016, published 2019)

Key:
S. aureus BK1 biofilms = assay: Scanning electron microscopy of treated biofilms in microtitre plates; assay type: cell-based, Staphylococcus aureus; conditions: Gentamycin 50 μg/mL; P128 12.5 μg/mL (lowest concentration tested)
Method: MRSA strain BK1 or MW2 was used for studying biofilm eradication activity of P128 by SEM. For this, biofilms formed in microtitre plates or on the surface of catheters were treated with increasing concentrations of P128 or antibiotics and subjected to SEM. S. aureus BK1 or MW2 was revived on blood agar plates and the culture was grown overnight in TSB supplemented with 20% glucose. The overnight-grown culture was diluted 1:50 in TSB with 2% glucose to achieve OD600=˜0.1. 200 μL of the diluted culture was aliquoted into each well of the 96 well plate and incubated at 37° C. under static conditions for 18 h. After incubation the contents were aspirated, washed twice with 200 μL of PBS, and 100 μL of media+100 μL of drug were added to each well and incubated again at 37° C. for 18 h. The contents were aspirated, washed with 200 μL of PBS and allowed to dry at 37° C. for 15 min. The individual wells were cut out and biofilms visualized by SEM.

[1] = tested on: S. aureus small colony variants (hemB and menD mutants); assay: Lawn inhibition assay on small colony variants; assay type: cell-based, Staphylococcus aureus
Method: Two S. aureus small colony variants viz., hemB mutant and menD mutants were characterized for SCV phenotype and auxotrophy for hemin and menadione. Both the isolates were revived on LB agar with and without Erythromycin (5 μg/mL) and Blood agar medium and incubated at 37° C. for 48 hr.
P128 was tested on both the mutants by lawn inhibition assay and the SCV's were susceptible to P128.

[2] = tested on: S. aureus small colony variants and wild type; assay: CFU drop assay on small colony variants; assay type: cell-based, Staphylococcus aureus
Method: Bacterial cultures were grown in LB medium at 37° C. until OD600 reached 1.0 and then diluted in LB to obtain 10^7 CFU. 100 μL of cells (10^7 CFU) in LB were treated with 100 μL of P128 (in saline) and incubated at 37° C. for 1 h, 200 rpm, cell controls without proteins were maintained. Following incubation, the volume was made up to 1 mL with LB broth, serially log diluted in LB broth and plated on LB agar. Incubated at 37° C. for 16-18 h to enumerate residual CFU and determine cell killing.

[3] = tested on: S. aureus stationary phase cells; assay: P128 activity on stationary phase cells (CFU); assay type: cell-based, Staphylococcus aureus; conditions: for CFU/mL, P128 treated: 10 μg/mL P128, 2 h
Text: (§1) Most in vitro studies examining the activity of antibiotics have been performed on rapidly dividing planktonic bacterial cultures supplemented with rich growth media. However, in infections, bacteria seldom encounter optimal conditions that allow logarithmic growth. It is likely that stationary-phase or non dividing bacteria are common in many persistent Staphylococcus infections such as endocarditis and osteomyelitis and in biofilm-associated infections (e.g., on catheters, grafts, and foreign bodies). Therefore, activity of P128 was determined on stationary phase cells of three S. aureus strains, three S. epidermidis, and two each of S. lugdunensis and S. haemolyticus strains. Briefly, the test cultures were grown overnight in LB (˜10^9 cells), centrifuged, pellet was washed and resuspended in saline. Optical density (OD600) was adjusted to 0.2 (˜10^8 CFU/mL). 100 μL of these cells were treated with 10 μg/mL P128 (in saline) and incubated at 37° C. for 2 h, 200 rpm, cell controls without proteins were maintained. Following incubation, the volume was made up to 1 mL with saline, serially log diluted in saline and plated on LB agar. Incubated at 37° C. for 18 h to enumerate residual CFU to determine cell killing.

[4] = tested on: S. epidermidis stationary phase cells; assay: P128 activity on stationary phase cells (CFU); assay type: cell-based, Staphylococcus epidermidis; conditions: 10 μg/mL P128, 2 h
Text: as §1

[5] = tested on: S. haemolyticus stationary phase cells; assay: P128 activity on stationary phase cells (CFU); assay type: cell-based; conditions: 10 μg/mL P128, 2 h
Text: as §1

[6] = tested on: S. lugdunensis stationary phase cells; assay: P128 activity on stationary phase cells (CFU); assay type: cell-based; conditions: 10 μg/mL P128, 2 h
Text: as §1

S. aureus = assay: P128 MIC in CAMHB and serum; assay type: cell-based, Staphylococcus aureus
S. epidermidis = assay: P128 MIC in CAMHB and serum; assay type: cell-based, Staphylococcus epidermidis
S. lugdunensis = assay: P128 MIC in CAMHB and serum; assay type: cell-based
S. haemolyticus = assay: P128 MIC in CAMHB and serum; assay type: cell-based
MRSA MW2 = assay: Rat model of infective endocarditis; assay type: in vivo, Wistar albino rats; conditions: described in present tense, no data
Text: A rat model of infective endocarditis is used. Fernandez, et al. (2012). Synergistic activity of ceftobiprole and vancomycin in a rat model of infective endocarditis caused by methicillin-resistant and glycopeptide-intermediate Staphylococcus aureus. Antimicrob Agents Chemother. 56(3):1476-84. Female Wistar albino rats are operated under ketamine and xylazine anaesthesia Right carotid artery is cannulated and polyethylene catheter is placed near the […]. Two days later, animals are challenged with MRSA MW2 through tail vein. Twenty four hours post-challenge, animals are treated with appropriate doses of P128 (IV bolus or infusion) or standard of care antibiotics (e.g., vancomycin, daptomycin, linezolid, oxacillin, etc.) or both. Animals are euthanized at appropriate time after the last dosing, vegetations are collected and bacterial load is determined.

B1: P128: anti-staphylococcal chimeric protein: phage tail associated muralytic enzyme (TAME) cell wall-degrading region plus staphylococcus-specific binding region; SEQ ID NO: 1 (protein)
chain: MSLDSLKKYNGKLPKHDPSFVQPGNRHYKYQCTWYAYNRRGQLGIPVPLWGDAADWIGGAKGAGYGVGRTPKQGACVIWQRGVQGGSPQYGHVAFVEKVLDGGKKIFISEHNYATPNGYGTRTIDMSSAIGKNAQFIYDKKLETPNTGWKTNKYGTLYKSESASFTPNTDIITRTTGPFRSMPQSGVLKAGQTIHYDEVMKQDGHVWVGYTGNSGQRIYLPVRTWNKSTNTLGVLWGTIK
modifications: P128 chimera
Effect on biofilm by SEM (S. aureus BK1 biofilms): destroyed the biofilm structure and lysed the bacterial cells completely | Lawn inhibition [1]: susceptible | Reduction in CFU of SCV strains [2]: more than 4 log | CFU/mL, P128 treated ([2]; S. aureus USA 300 (wild type), 1 h): 4.5 × 10^2 CFU/mL | CFU/mL, P128 treated ([2]; hemB small colony mutant NR48387, 1 h): 3.0 × 10^1 CFU/mL | CFU/mL, P128 treated ([2]; menD mutant small colony mutant, 1 h): 1.2 × 10^3 CFU/mL | CFU/mL, P128 treated ([3]; S. aureus B9377 stationary phase): 3 × 10^2 CFU/mL | CFU/mL, P128 treated ([3]; S. aureus BK18 stationary phase): 1 × 10^1 CFU/mL | CFU/mL, P128 treated ([3]; S. aureus BK31 stationary phase): 3.5 × 10^1 CFU/mL | Drop in CFU, stationary cells ([3]; S. aureus, S. epidermidis, S. lugdunensis and S. haemolyticus): Three to five log drop in CFU | CFU/mL, P128 treated ([4]; S. epidermidis B9467 stationary phase): 3.7 × 10^2 CFU/mL | CFU/mL, P128 treated ([4]; S. epidermidis B9470 stationary phase): 1.5 × 10^2 CFU/mL | CFU/mL, P128 treated ([4]; S. epidermidis B9472 stationary phase): 7 × 10^1 CFU/mL | CFU/mL, P128 treated ([5]; S. haemolyticus B9478 stationary phase): 1.1 × 10^3 CFU/mL | CFU/mL, P128 treated ([5]; S. haemolyticus B9479 stationary phase): 6 × 10^2 CFU/mL | CFU/mL, P128 treated ([6]; S. lugdunensis B9474 stationary phase): 4.9 × 10^2 CFU/mL | CFU/mL, P128 treated ([6]; S. lugdunensis B9475 stationary phase): 2.7 × 10^4 CFU/mL | Fold reduction in serum MIC (S. aureus; S. aureus MW2): 64 fold | MIC of P128 in CAMHB (S. aureus; S. aureus MW2): 8 μg/ml and (0.29) μM | MIC of P128 in Serum (S. aureus; S. aureus MW2): 0.12 μg/ml and (0.004) μM | Fold reduction in serum MIC (S. aureus; S. aureus USA 300): 64 fold | MIC of P128 in CAMHB (S. aureus; S. aureus USA 300): 8 μg/ml and (0.29) μM | MIC of P128 in Serum (S. aureus; S. aureus USA 300): 0.12 μg/ml and (0.004) μM | Fold reduction in serum MIC (S. epidermidis; S. epidermidis B9470): 32 fold | MIC of P128 in CAMHB (S. epidermidis; S. epidermidis B9470): 4 μg/ml and (0.14) μM | MIC of P128 in Serum (S. epidermidis; S. epidermidis B9470): 0.12 μg/ml and (0.004) μM | Fold reduction in serum MIC (S. epidermidis; S. epidermidis B9473): 4 fold | MIC of P128 in CAMHB (S. epidermidis; S. epidermidis B9473): 16 μg/ml and (0.58) μM | MIC of P128 in Serum (S. epidermidis; S. epidermidis B9473): 4 μg/ml and (0.14) μM | 24 h P128 MIC for serum time-kill (S. epidermidis; S. epidermidis, fetal calf serum): 0.25 µg/mL | Fold reduction in serum MIC (S. lugdunensis; S. lugdunensis B9476): 8 fold | MIC of P128 in CAMHB (S. lugdunensis; S. lugdunensis B9476): 4 μg/ml and (0.14) μM | MIC of P128 in Serum (S. lugdunensis; S. lugdunensis B9476): 0.5 μg/ml and (0.017) μM | Fold reduction in serum MIC (S. lugdunensis; S. lugdunensis B9510): 32 fold | MIC of P128 in CAMHB (S. lugdunensis; S. lugdunensis B9510): 16 μg/ml and (0.58) μM | MIC of P128 in Serum (S. lugdunensis; S. lugdunensis B9510): 0.5 μg/ml and (0.017) μM | 24 h P128 MIC for serum time-kill (S. lugdunensis; S. lugdunensis, fetal calf serum): 0.50 µg/mL | Fold reduction in serum MIC (S. haemolyticus; S. haemolyticus B9478): 16 fold | MIC of P128 in CAMHB (S. haemolyticus; S. haemolyticus B9478): 128 μg/ml and (4.64) μM | MIC of P128 in Serum (S. haemolyticus; S. haemolyticus B9478): 8 μg/ml and (0.29) μM | Fold reduction in serum MIC (S. haemolyticus; S. haemolyticus B9511): 32 fold | MIC of P128 in CAMHB (S. haemolyticus; S. haemolyticus B9511): 8 μg/ml and (0.29) μM | MIC of P128 in Serum (S. haemolyticus; S. haemolyticus B9511): 0.25 μg/ml and (0.008) μM | 24 h P128 MIC for serum time-kill (S. haemolyticus; S. haemolyticus, fetal calf serum): 0.25 µg/mL | CFU reduction in vegetations (MRSA MW2): Significantly higher CFU reduction
